Laboratory results reported in the supplement of paper PMC10567573.

B1: NP_002788.1 (parent)
chain: DGWIRVSSDNVADLHEKYSGSTP

Variants of: B1
Experiment: protein stability index of a GFP-peptide fusion (GPS, HEK-293T) (PSI 1-6); higher = more stable
Settings: c terminus: native
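Note: lentivirally expressed fusion library, cells FACS-sorted into six equal-sized GFP/DsRed ratio bins, PSI computed from sequencing read fractions per bin weighted by bin number.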

Protein stability index: each site, then its substitutions
D1: A 2.37; C 2.23; E 2.54; F 2.3; H 2.51; I 2.92; K 2.09; L 2.2; M 2.3; N 2.33; P 2.7; Q 2.36; R 2.44; S 2.53; T 2.48; V 2.36; W 2.8; Y 2.07
G2: A 2.25; C 2.21; D 2.9; E 2.51; F 2.47; H 2.51; K 2.13; L 2.54; M 2.36; N 2.42; P 2.71; Q 2.56; R 2.97; S 2.13; T 2.09; V 2.49; W 2.27; Y 2.78
W3: A 5.34; C 5.49; D 5.23; E 5.43; F 4.08; G 5.28; H 5.35; I 5.33; K 5.21; L 5.26; M 5.35; N 5.39; P 5.26; Q 5.42; R 5.15; S 5.54; T 5.5; V 5.65; Y 5.02
I4: A 2.92; C 3.19; D 4.94; E 3.9; F 4.14; G 4.49; H 4.58; K 3.67; L 3.18; M 3.39; N 4.94; P 5.29; Q 2.94; R 3.53; S 3.47; T 2.81; V 2.17; W 3.58; Y 4.36
R5: A 2.31; C 2.83; D 3.01; E 2.96; F 2.52; G 3.15; H 2.62; I 2.67; K 2.49; L 2.5; M 2.64; N 2.63; P 4.15; Q 2.52; S 2.51; T 2.54; V 2.42; W 2.41; Y 2.76
V6: A 2.27; C 3; D 4.78; E 3.77; F 2.77; G 4.34; H 2.18; I 2.21; K 2.16; L 2.78; M 2.31; N 2.86; P 5.05; Q 2.41; R 2.13; S 3.41; T 3.15; W 3.04; Y 2.48
S7: A 2.32; C 2.07; D 4.55; E 3.83; F 2.45; G 3.63; H 3.09; I 2.25; K 4.58; L 2.26; M 2.41; N 4.02; P 4.54; Q 3.86; R 4.19; T 2.24; V 2.06; W 2.64; Y 2.39
S8: A 2.31; C 2.13; D 2.99; E 2.23; F 2.36; G 2.42; H 2.57; I 2.32; K 2.68; L 2.28; M 2.41; N 2.31; P 3.95; Q 2.54; R 2.31; T 2.87; V 2.42; W 2.23; Y 2.14
D9: A 2.35; C 2.4; E 2.34; F 2.27; G 2.82; H 2.59; I 2.27; K 2.36; L 2.42; M 2.59; N 2.29; P 2.25; Q 2.41; R 2.3; S 2.74; T 2.43; V 2.54; W 2.19; Y 2.24
N10: A 1.84; C 2.21; D 2.54; E 2.53; F 2.4; G 2.86; H 2.22; I 2.28; K 2.28; L 2.69; M 2.67; P 2.58; R 2.04; S 2.17; T 2.37; V 2.39; W 2.42; Y 2.36
V11: A 2.53; C 2.41; D 2.54; E 1.92; F 2.37; G 2.7; H 2.29; K 1.78; L 2.21; M 2.64; N 2.69; P 2.73; Q 2.38; R 1.87; S 2.47; T 2.48; W 2.4; Y 2.67
A12: C 2.57; E 2.52; F 2.32; G 2.68; H 2.85; I 2.59; K 2.33; L 2.88; M 2.3; N 2.48; P 2.45; Q 2.25; R 2.46; S 2.24; T 2.43; V 2.44; W 2.46; Y 2.73
D13: A 2.66; C 2.6; E 2.72; F 2.62; G 2.42; H 2.38; I 2.53; K 2.71; L 2.58; M 2.53; N 2.4; P 2.3; Q 2.47; R 2.04; S 2.52; T 2.47; V 2.75; W 2.71; Y 2.54
L14: A 2.84; C 2.92; D 2.89; E 2.74; F 1.96; G 3.47; H 2.06; I 2.35; K 2.37; M 2.65; N 2.98; P 2.57; Q 2.89; R 2.41; S 3.01; T 2.86; V 2.36; W 2.62; Y 2.5
H15: A 2.51; C 2.73; D 2.85; E 2.98; F 2.82; G 2.71; I 2.68; K 2.77; L 2.66; M 2.64; N 2.92; P 3.06; Q 2.76; R 2.33; S 2.47; T 2.77; V 2.4; W 2.39; Y 2.42
E16: A 2.5; C 2.62; D 2.58; F 2.46; G 3.13; H 2.67; I 2.58; K 3.12; L 2.76; M 2.53; N 2.95; P 3.32; Q 2.87; R 2.97; S 2.64; T 2.8; V 2.92; W 2.65; Y 2.87
K17: A 3.52; C 3.04; D 3.58; E 3.47; F 3.36; G 3.75; H 3.24; I 3.12; L 3.06; M 3.19; N 3.33; P 3.69; Q 3.16; S 3.41; T 3.27; V 3.18; W 2.97; Y 3.34
Y18: A 3.39; C 3.09; D 3.64; E 3.23; F 2.44; G 3.6; H 2.68; I 3.11; K 4.17; L 2.69; M 2.92; N 3.13; P 4.33; Q 3.46; R 3.3; S 3.6; T 3.66
